Experimental data published in patent US20250333506A1 (NEW YORK UNIVERSITY, published 2025).
Changes are numbered by the printed parent chain. Where two headings read alike, the source gives them in different places. Each block holds one binder with its values, some of them ahead of it.

What was measured:
Cyno D2 [1] = molecular target: T1, Cyno D2 (biotinylated (AviTag)); assay: bead binding assay: biotinylated TCR-Fc on streptavidin beads, IgG titrated, flow cytometry
T1 construct: also called cynomolgus Gamma/Delta2; Cyno D2/G
T1 delta chain: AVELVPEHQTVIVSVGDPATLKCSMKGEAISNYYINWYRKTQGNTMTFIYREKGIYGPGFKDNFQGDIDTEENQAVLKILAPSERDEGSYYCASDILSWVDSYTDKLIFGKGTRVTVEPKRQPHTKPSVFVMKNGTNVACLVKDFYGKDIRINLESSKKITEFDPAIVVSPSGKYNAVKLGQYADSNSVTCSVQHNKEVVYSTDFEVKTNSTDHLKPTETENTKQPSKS
T1 gamma chain: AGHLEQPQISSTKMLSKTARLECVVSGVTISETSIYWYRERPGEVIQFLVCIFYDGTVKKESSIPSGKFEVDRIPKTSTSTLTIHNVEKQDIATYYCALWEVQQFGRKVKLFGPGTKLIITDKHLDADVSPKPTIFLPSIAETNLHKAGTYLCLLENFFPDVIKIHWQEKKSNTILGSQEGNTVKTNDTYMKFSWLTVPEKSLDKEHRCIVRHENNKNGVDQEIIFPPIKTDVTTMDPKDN

[2] = molecular target: T2, cynomolgus Gamma/Delta1A TCR-Fc fusion protein (cynomolgus monkey, biotinylated in vitro with recombinant BirA (AviTag)); assay: bead binding assay (TCR-Fc on streptavidin beads, IgG titrated, flow cytometry); apparent KD
T2 construct: First chain = delta, second = gamma; also called Cyno D1; cyno D1; not shown: Fc portion of mouse IgG, then AviTag and His6 tag at the C-terminus; Fc portion of mouse IgG

[3] = molecular target: T3, cynomolgus monkey Delta1 Fc fusion protein (Delta1 clone not stated); assay: bio-layer interferometry (Octet), biotinylated receptor on streptavidin sensor tips, antibody in solution; KD Error 1.33e-012
T3 construct: also called monkey (cyno) delta-1 chain; monkey Delta1 receptors

[4] = molecular target: T4, human Delta1 TCR (Fc fusion protein, Delta1 clone and gamma chain not stated); assay: bio-layer interferometry (Octet), biotinylated receptor on streptavidin sensor tips, antibody in solution; KD Error 1.14e-012
T4 construct: also called Human Delta1 Fc fusion protein; human delta-1 chain

[5] = molecular target: T5, cell surface-expressed δ1-γ5 TCR on J.RT3-T3.5 Jurkat cells; assay: flow cytometry titration on the D1/G5 TCR Cell Line (AB Hi), transduced J.RT3-T3.5 Jurkat cells
T5 construct: whole, on cells; also called Delta1 and gamma 5

[6] = molecular target: T6, cell surface-expressed δ1γ2 TCR on J.RT3-T3.5 Jurkat cells; assay: flow cytometry titration on the D1/G2 TCR Cell Line (9-10 Hi), transduced J.RT3-T3.5 Jurkat cells
T6 construct: whole, on cells; Cells were stained with anti-human reagents; species of the transduced chains is not restated; also called Delta1 and gamma 2

[7] = molecular target: T7, cell surface-expressed δ1-γ8 TCR on J.RT3-T3.5 Jurkat cells; assay: flow cytometry titration on the D1/G8 TCR Cell Line (9-2 Hi), transduced J.RT3-T3.5 Jurkat cells
T7 construct: whole, on cells; also called Delta1 and gamma 8

[8] = molecular target: T4, human Delta1 TCR (Fc fusion protein, …); assay: bead binding titration, flow cytometry (MFI against antibody concentration)
[9] = molecular target: T8, cell surface-expressed δ1-γ9 TCR on J.RT3-T3.5 Jurkat cells; assay: flow cytometry titration on the D1/G9 TCR Cell Line (JR2 Hi), transduced J.RT3-T3.5 Jurkat cells
T8 construct: whole, on cells; also called Delta1/Gamma9 TCR on the surface; delta1/gamma-9

[10] = molecular target: T9, cell surface-expressed δ1-γ4 TCR on J.RT3-T3.5 Jurkat cells; assay: flow cytometry titration on the D1/G4 TCR Cell Line (DP10 Hi), transduced J.RT3-T3.5 Jurkat cells
T9 construct: whole, on cells; also called Delta1 and gamma 4; delta1/gamma-4

[11] = molecular target: T2, cynomolgus Gamma/Delta1A TCR-Fc fusion …; assay: bead binding assay by the table's title (paragraph 456 gives the same value for Octet BLI, FIG. 22B); apparent KD; apparent KD, IgG format, bead binding assay; measured once
[12] = molecular target: T2, cynomolgus Gamma/Delta1A TCR-Fc fusion …; assay: bead binding assay: biotinylated TCR-Fc on streptavidin beads, IgG titrated, flow cytometry
[13] = molecular target: T10, cell surface-expressed δ1γ3 TCR on J.RT3-T3.5 Jurkat cells; assay: flow cytometry titration on the D1/G3 TCR Cell Line (16-3 Hi), transduced J.RT3-T3.5 Jurkat cells
T10 construct: whole, on cells; also called Delta1 and gamma 3

Cyno D2 [14] = molecular target: T1, Cyno D2; assay: bead binding assay: biotinylated TCR-Fc on streptavidin beads, IgG titrated, flow cytometry
[15] = molecular target: T2, cynomolgus Gamma/Delta1A TCR-Fc fusion …; assay: bead binding assay (TCR-Fc on streptavidin beads, IgG titrated, flow cytometry); apparent KD, s.d. of triplicates
Cyno D2 [16] = molecular target: T1, Cyno D2; assay: bead binding assay: biotinylated TCR-Fc on streptavidin beads, IgG titrated, flow cytometry

binding result (Cyno D2 [14]): no binding (tested: 100 nM)
Kd [15]: 0.48 nM
B3: Delta1-25 (antibody, V domains shown)
VH: EVQLVESGGGLVQPGGSLRLSCAASGFTVSSSSIHWVRQAPGKGLEWVASIYSSSGYTYYADSVKGRFTISADTSKNTAYLQMNSLRAEDTAVYYCARDPGSYYWYYSGSAYEGYGLDYWGQGTLVTVSS
VL: DIQMTQSPSSLSASVGDRVTITCRASQSVSSAVAWYQQKPGKAPKLLIYAASSLQSGVPSRFSGSRSGTDFTLTISSLQPEDFATYYCQQIGRRSSLITFGQGTKVEIKR
notes: Tested in the human IgG format

binding result (Cyno D2 [16]): no binding (tested: 100 nM)
Kd [15]: 0.26 nM
B4: Delta1-26 (antibody, V domains shown)
VH: B3 VH
VL: B3 VL with I91Q, G92Q, R94Y, S96Y
notes: as for B3

The next lines start with the binder.

B1: Delta1-24 (antibody, V domains shown)
VH: B3 VH
VL: B3 VL with I91S, G92N, R94S, S95Y, S96P, L97P, I98L
notes: as for B3
binding result (Cyno D2 [1]): no binding (tested: 100 nM)
Kd [2]: 1.16 nM

B2: Delta1-39 (antibody, V domains shown)
VH: B3 VH with V29F, S30T, S31A, S32N, S33D
VL: B3 VL with I91Q, G92S, R93K, R94Y, S95P, S96F
notes: Tested in the human IgG format; also called anti-Delta1-39; Delta-39
Kd [3]: 0.285 nM
Kd [4]: 0.231 nM
EC50 (read off the curve) [5]: ~4 nM
EC50 (read off the curve) [6]: ~7 nM
EC50 (read off the curve) [7]: ~6 nM
EC50 (read off the curve) [8]: ~1 nM
EC50 (read off the curve) [9]: ~10 nM
EC50 (read off the curve) [10]: ~9 nM
Kd [11]: 0.28 nM
EC50 (read off the curve) [12]: ~2 nM
EC50 (read off the curve) [13]: ~6 nM
